The supplement of paper PMC12764529
± gives the half width of the 95% confidence interval.

Test: folding stability dG unfold from trypsin proteolysis; higher = more stable
In short: (§1)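 Mini-proteins designed to be under 80 residues and free of cysteine were carried in a PA-tagged cDNA display construct and digested with trypsin and with chymotrypsin. Each protease was applied at 11 threefold-diluted concentrations, alongside a no-protease condition, before sequencing. K50 came from Bayesian fitting of the sequencing counts, and unfolding free energy was obtained by comparing it with a sequence-predicted unfolded-state K50 and a shared folded-state K50, for each protease separately or for both together. Designs were retained only if their AlphaFold2 dimer inter-PAE exceeded 15.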

Sequence	folding stability dG unfold [kcal/mol]
SAGAIERILEWLKDQPPGDEVPIPIRLPNGWYIKINIEYNPEENKPKIEVEYYDPDDGKPRQEQKFTIPSAG [r5_35_TrROS]	1.59 ± 0.077
SAGGSMPPDTEIAVIRVEVRPPDGSTLPLLFTVPLEKVEEVAKEIAERLREKGYEVKVELAAVFPVSAGGSA [r2_274_TrMRF]	2.06 ± 0.057
SAGGSAGGSPYKEVPVPVRIHSPDGETHEFPGTIWKSPDDGMLEIRFPGNGKKHKIPLNDIQISAGGSAGGS [r12_772_TrROS]	-1.5 ± 0.59
SMSVEISVPPTNPGASPEEIAAALAAKGRPVEVVSVSEDPSTGTRTVTIAVRAPDGTLEETVVVNAPVGVSA [r9_879_JUSTAS]	0.495 ± 0.057
SAGMVEIVHDPAGYYTVNVTLTKEGKPTSRTIRVPPELSPEEVKALVEELAKEEGVDDVEVTVIPLPESAGG [r19_31_JUSTAS]	1.1 ± 0.035
SIKIEPHPDGFFMLRFPDNGHKIMIRVDPEKGKVKIMFETPGQPVEQEIDPDEGTITIEFPNNKIEIPIKSA [r9_541_TrROS]	2.42 ± 0.1
SAGGSAGGSAGGGSMKEKKLTVGDKEIIVTYNPETGTATVKSPENSVSVFPLEELKKLLSAGGSAGGSAGGS [r10_1140_JUSTAS]	-1.25 ± 0.93
SAVPLSEEELEALLEEKAKEKAEEILKENPELPPGAVIKIKVEYEQEVVLEDKVEPVKYEREVEYKVPLSAG [r14_486_JUSTAS]	0.00158 ± 0.12
SKTIIIEVKEEKLEEIAEELAKKLEEETGYKIKKVEIILPDGTVVRIEVDAKTKKIKIEVYKLDKNGKLLSA [r9_173_TrROS_Hall]	1.15 ± 0.037
SAGGDITITKNPENDYYTITLPLPNSNSTAVAFLDPKTGTAVVINPDNPLVLVLEPNGTLKEVKLLPPSAGG [r13_101_TrMRF]	1.04 ± 0.05
SAGGFLEAIKNGKPVIFHVLVKHPGSGEVEEYPILVHPDKPIDLEKLIKELFPEDFEAEIFVSDFGFSAGGS [r8_127_TrMRF]	1.3 ± 0.13
MKIEIEIEREEDRVIVRIKIERKDGKEIELELEVPSLEEALEAIEKILASLPPEEVKIVEIEIYNADGEKIS [r1_169_TrROS_Hall]	2.53 ± 0.14
SAGGSAGGMEIRIEKDENGFLRLKVINKKTKKETEIEIPVEDEDALKKLLDAGVERVEIEPLPPSAGGSAGG [r6_639_TrROS_Hall]	0.399 ± 0.13
SMATVLSVSENPENPDTLSFEVELPDSPMSVTVPKDPKTGKYTMTVETPEATTTRDFTSLEDALAYIERASA [r9_366_JUSTAS]	0.787 ± 0.021
SAGGSAGGSPYLVTVTLPDGSTLTHTIPVPPDVPLSEEEIRERIRREYPGPPLGPITIERPTESAGGSAGGS [r12_262_JUSTAS]	0.885 ± 0.015
SAGGSAGMNSEITLTIPVPHPRDEEGRVLPLSPEAIEKELKEKGYNVKIKEVKTSPSTITVTLKIISAGGSA [r15_225_JUSTAS]	0.864 ± 0.053
MKPIPAEEIRDLAQKLGLPLPPGQIQIKVRHNNKKKTFPIPAGDPITIDDIVENMQQQNPNIKDIEIVIHPS [r1_135_TrROS]	-0.754 ± 0.53
SAGGSAGGSMVKVEVTTTYDPSSNKTTVTTTTTLTEGGGTVLGTKTTTTTTTISPTTPVTSVTSAGGSAGGS [r12_254_JUSTAS]	0.604 ± 0.031
SAGGSAGGSAGDIPAIPKVIFIPYPIEKIEVFEDSVVVRVIHPDGGSETIVFPDRALILGSAGGSAGGSAGG [r11_957_TrMRF]	1.6 ± 0.042
SPIVKVRLRIELPDGKVLELELDVPLPLIKEALSKLIGEKYKVKIVKIDPIDPEKLKPGSTIEITLKAEPSA [r9_803_TrMRF]	3.72 ± 0.28
SAGGSVIVKLPNGKILEVSPSELAGYKPGAAVKFPDGTAQVVNPETDEVIDIPIDSPEKIIEAIKKAASAGG [r13_962_TrMRF]	0.0192 ± 0.1

Test: folding stability dG unfold from chymotrypsin proteolysis; higher = more stable
In short: as §1

Sequence	folding stability dG unfold [kcal/mol]
SAGSSISSISRSPVSTEEDPSTNVRRTTYLEKYPGPPNLLKEVTVTTTFAPDGTPTVTPAVTTLSPALLSAG [r5_48_JUSTAS]	-0.899 ± 0.68
SAGGSAGGPVSVDPSTGTVTITVPPGTATPVVEAIAAALGLPVETATTPLPDGTTTVTVTIPAASAGGSAGG [r6_419_JUSTAS]	0.816 ± 0.1
SAGEEVYLITVRIIDPETNEVKEITKLIKNKTEDEILEELRKLLEELGIELPEGAKVEITITKIKPPPESAG [r5_230_TrROS_Hall]	4.07 ± 0.44
SAGGSAGGSAVRTIFIPGGNIKDIIELIKSDPGQPVQIHAPDGWVIKITGDKDIDIHPFPDSAGGSAGGSAG [r3_269_TrROS]	0.337 ± 0.084
SAGGSAGGSAGGMIVTLPKTGEVLLVPEEEIEAFLAALPESFPKEDVEVYEYSPEEEPLSAGGSAGGSAGGS [r10_13_JUSTAS]	0.0515 ± 0.17
SAGGSASPEKVAEELKKKGYKEVKITKDPNTNVTTVTVEDPSGKKYTLTVDPKNPTVVSKKEFSLDSAGGSA [r15_648_JUSTAS]	1.51 ± 0.096
SAGGSAGGSAMITIKVSPDVPVPSNTPITLPNGKKVKATVTPVPSPEDGTPVLKITLDPNLISAGGSAGGSA [r18_476_JUSTAS]	0.891 ± 0.023
SAGGPVVTTTTEYDPSTGKTYTVTTVPGSATQTTTYTLPDGTVLTTTTTVSPTTGGVTSTTPTTTPVPASAG [r5_587_JUSTAS]	1.31 ± 0.089
SAGGSAGGSAGGSILLITTHPKDAEKAAKEIEKILAELDIPPDAKIEVYVVPKEYLPDESAGGSAGGSAGGS [r4_472_TrMRF]	0.176 ± 0.17
SAGGSAGGSAGMTVTVPPDLDPESAIAALKAAAPASVKTVTLTIVDGEGPTTTVTVDITGSAGGSAGGSAGG [r17_215_JUSTAS]	0.209 ± 0.11
SAGKVKVEKLEDGTVIVEAEIKDPETDEYIKIFDLVTFNPETGYALVPRLVIKGDKPFTFPVLVKLPKSAGG [r19_289_TrMRF]	0.931 ± 0.11
SAGGSAGGSGFPVRLKIWDPDETYTYTVPMDPDNVQKFAEELGEKNFNIETEPNGWATITIPKSAGGSAGGS [r12_292_TrROS]	0.95 ± 0.15
SAGGGFDIITITFGGIPITLTLEGEEEVKKFIEELPKLGIKTEILEKEKKIGPDGKPYVEVKVKAIPSAGGS [r8_336_JUSTAS]	1.43 ± 0.14
SAGGSAGGSAGMTLEELLRKAKPGQTLTLRVRVVERNEDGSLSEREFTFTFRLELKPEDLSAGGSAGGSAGG [r11_347_TrROS_Hall]	3.61 ± 0.06
SFSISTETKVVPQDGRLLIEYEFTVPNAPPGDTAALTLSVSHPSGASTSTSQTADPAGTYTAKFVVDIPLTS [r1_161_JUSTAS]	0.471 ± 0.09
SAGGSAGGSMVKTFPESEPGERVTRELILTPDSIEIVETVVKTDPATGKPVEEVLLRRSTLPLSAGGSAGGS [r12_70_JUSTAS]	-0.315 ± 0.41
SAGGSMVITITFPDGSTVTIPEEELLELLKKYGIEPDESDKEKVAKEAAKIIGEEKGIPIKEVKINSAGGSA [r2_83_JUSTAS]	3.43 ± 0.092
SAGGSAGGSASMKVLEFPPDASIEEILEKIEKELGLSKEEIKNIKIEKIDDEEGSYKVIIESAGGSAGGSAG [r3_26_JUSTAS]	2.62 ± 0.054
SAGGPGMEPIGEIKLDDGVTIEVWRPPNGWYRAKVEFPDNGKQINYPFNPNMSFEQAKDQIKELARKLSAGG [r13_624_TrROS]	1.86 ± 0.15
DIDIETHPNGTILIKVPRNLLDEIKDILKENGYNVKITGIDPDWGYIRFPLKPVPPPPPKPSPEDAEEQGDS [r1_78_TrROS]	2.14 ± 0.041
SAGGSAKNEYITVNITIIVYNPEDGKIEKIINLPIKVPKNLTKEQVINLAKKLLEEKGYEIAEIKGSAGGSA [r15_195_TrMRF]	3.24 ± 0.13

Sequence	folding stability dG unfold [kcal/mol]
SAGAIERILEWLKDQPPGDEVPIPIRLPNGWYIKINIEYNPEENKPKIEVEYYDPDDGKPRQEQKFTIPSAG [r5_35_TrROS]	0.899 ± 0.17
SAGGSMPPDTEIAVIRVEVRPPDGSTLPLLFTVPLEKVEEVAKEIAERLREKGYEVKVELAAVFPVSAGGSA [r2_274_TrMRF]	2.18 ± 0.06
SAGGSAGGSPYKEVPVPVRIHSPDGETHEFPGTIWKSPDDGMLEIRFPGNGKKHKIPLNDIQISAGGSAGGS [r12_772_TrROS]	-0.606 ± 0.19
SMSVEISVPPTNPGASPEEIAAALAAKGRPVEVVSVSEDPSTGTRTVTIAVRAPDGTLEETVVVNAPVGVSA [r9_879_JUSTAS]	-0.772 ± 0.33
SAGMVEIVHDPAGYYTVNVTLTKEGKPTSRTIRVPPELSPEEVKALVEELAKEEGVDDVEVTVIPLPESAGG [r19_31_JUSTAS]	1.51 ± 0.12
SIKIEPHPDGFFMLRFPDNGHKIMIRVDPEKGKVKIMFETPGQPVEQEIDPDEGTITIEFPNNKIEIPIKSA [r9_541_TrROS]	1.14 ± 0.24
SAGGSAGGSAGGGSMKEKKLTVGDKEIIVTYNPETGTATVKSPENSVSVFPLEELKKLLSAGGSAGGSAGGS [r10_1140_JUSTAS]	0.741 ± 0.1
SAVPLSEEELEALLEEKAKEKAEEILKENPELPPGAVIKIKVEYEQEVVLEDKVEPVKYEREVEYKVPLSAG [r14_486_JUSTAS]	-0.503 ± 0.76
SKTIIIEVKEEKLEEIAEELAKKLEEETGYKIKKVEIILPDGTVVRIEVDAKTKKIKIEVYKLDKNGKLLSA [r9_173_TrROS_Hall]	2.24 ± 0.096
SAGGDITITKNPENDYYTITLPLPNSNSTAVAFLDPKTGTAVVINPDNPLVLVLEPNGTLKEVKLLPPSAGG [r13_101_TrMRF]	0.566 ± 0.2
SAGGFLEAIKNGKPVIFHVLVKHPGSGEVEEYPILVHPDKPIDLEKLIKELFPEDFEAEIFVSDFGFSAGGS [r8_127_TrMRF]	2.11 ± 0.058
MKIEIEIEREEDRVIVRIKIERKDGKEIELELEVPSLEEALEAIEKILASLPPEEVKIVEIEIYNADGEKIS [r1_169_TrROS_Hall]	1.85 ± 0.086
SAGGSAGGMEIRIEKDENGFLRLKVINKKTKKETEIEIPVEDEDALKKLLDAGVERVEIEPLPPSAGGSAGG [r6_639_TrROS_Hall]	1.34 ± 0.08
SMATVLSVSENPENPDTLSFEVELPDSPMSVTVPKDPKTGKYTMTVETPEATTTRDFTSLEDALAYIERASA [r9_366_JUSTAS]	0.758 ± 0.08
SAGGSAGGSPYLVTVTLPDGSTLTHTIPVPPDVPLSEEEIRERIRREYPGPPLGPITIERPTESAGGSAGGS [r12_262_JUSTAS]	1.62 ± 0.047
SAGGSAGMNSEITLTIPVPHPRDEEGRVLPLSPEAIEKELKEKGYNVKIKEVKTSPSTITVTLKIISAGGSA [r15_225_JUSTAS]	1 ± 0.082
MKPIPAEEIRDLAQKLGLPLPPGQIQIKVRHNNKKKTFPIPAGDPITIDDIVENMQQQNPNIKDIEIVIHPS [r1_135_TrROS]	-0.389 ± 0.28
SAGGSAGGSMVKVEVTTTYDPSSNKTTVTTTTTLTEGGGTVLGTKTTTTTTTISPTTPVTSVTSAGGSAGGS [r12_254_JUSTAS]	1.17 ± 0.015
SAGGSAGGSAGDIPAIPKVIFIPYPIEKIEVFEDSVVVRVIHPDGGSETIVFPDRALILGSAGGSAGGSAGG [r11_957_TrMRF]	1.47 ± 0.03
SPIVKVRLRIELPDGKVLELELDVPLPLIKEALSKLIGEKYKVKIVKIDPIDPEKLKPGSTIEITLKAEPSA [r9_803_TrMRF]	4.76 ± 0.14
SAGGSVIVKLPNGKILEVSPSELAGYKPGAAVKFPDGTAQVVNPETDEVIDIPIDSPEKIIEAIKKAASAGG [r13_962_TrMRF]	0.365 ± 0.077
